B2: CFeSP small subunit from Moorella thermoacetica (natural protein, UniProt Q07341 1-323, looked up)
chain: MAVQILRDRSRAAVQKVVLGATKDQGGTRSHTIVVGGDAALPFHHFEGEIVNRPVIGMEVQDIVPDWPDVLKDPFTDVINEPGRWAQKCVAEYGADLIYLKLDGADPEGANHSVDQCVATVKEVLQAVGVPLVVVGCGDVEKDHEVLEAVAEAAAGENLLLGNAEQENYKSLTAACMVHKHNIIARSPLDINICKQLNILINEMNLPLDHIVIDPSIGGLGYGIEYSFSIMERIRLGALQGDKMLSMPVICTVGYEAWRAKEASAPVSEYPGWGKETERGILWEAVTATALLQAGAHILLMRHPEAVARVKENIDQLMVSNAY

Test in all cases: crystal structure
The data set “crystal structure” deals with the molecule itself.
Data set [1] addresses T1, corrinoid iron-sulfur protein (CFeSP) from Moorella thermoacetica (Moorella thermoacetica, UniProt Q07340 1-446; Q07341 1-323).
T1 sequence (looked up) 1: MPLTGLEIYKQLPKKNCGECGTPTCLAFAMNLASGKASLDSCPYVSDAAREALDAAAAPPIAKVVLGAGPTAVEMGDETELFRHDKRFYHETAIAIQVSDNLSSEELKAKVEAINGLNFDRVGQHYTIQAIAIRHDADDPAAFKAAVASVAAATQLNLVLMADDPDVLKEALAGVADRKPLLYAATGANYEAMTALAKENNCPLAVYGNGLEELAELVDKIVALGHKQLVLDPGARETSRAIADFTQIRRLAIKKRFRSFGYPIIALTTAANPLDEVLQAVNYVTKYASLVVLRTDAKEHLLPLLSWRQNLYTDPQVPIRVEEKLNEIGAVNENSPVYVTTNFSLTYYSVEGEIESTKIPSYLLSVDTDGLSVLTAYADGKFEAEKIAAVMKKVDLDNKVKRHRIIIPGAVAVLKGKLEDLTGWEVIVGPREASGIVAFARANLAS
T1 sequence (looked up) 2: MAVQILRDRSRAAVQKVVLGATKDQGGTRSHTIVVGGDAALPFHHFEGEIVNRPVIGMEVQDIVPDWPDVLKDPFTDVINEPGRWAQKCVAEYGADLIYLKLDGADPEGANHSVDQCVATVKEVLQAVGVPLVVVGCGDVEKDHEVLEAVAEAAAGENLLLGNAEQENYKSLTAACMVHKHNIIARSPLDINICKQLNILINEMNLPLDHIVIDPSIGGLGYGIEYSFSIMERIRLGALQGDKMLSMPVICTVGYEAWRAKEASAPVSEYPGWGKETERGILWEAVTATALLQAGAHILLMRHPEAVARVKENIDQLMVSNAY

In data set [2] the target is B2.
The target in data set [3] is T2, CFeSP large subunit from Moorella thermoacetica (Moorella thermoacetica, UniProt Q07340 1-446).
T2 sequence (looked up): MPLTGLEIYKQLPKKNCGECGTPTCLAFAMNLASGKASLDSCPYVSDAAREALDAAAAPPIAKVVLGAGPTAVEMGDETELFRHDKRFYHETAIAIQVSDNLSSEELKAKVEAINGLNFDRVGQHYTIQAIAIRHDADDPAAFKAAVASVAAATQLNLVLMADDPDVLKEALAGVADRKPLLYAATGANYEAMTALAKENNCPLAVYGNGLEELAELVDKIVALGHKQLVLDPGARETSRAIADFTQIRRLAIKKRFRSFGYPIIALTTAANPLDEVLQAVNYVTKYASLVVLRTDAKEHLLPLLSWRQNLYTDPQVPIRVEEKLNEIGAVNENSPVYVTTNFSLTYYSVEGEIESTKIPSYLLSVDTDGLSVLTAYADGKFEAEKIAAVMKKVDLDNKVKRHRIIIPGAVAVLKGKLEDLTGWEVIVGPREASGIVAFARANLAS

B1: methyltransferase (MeTr) from Moorella thermoacetica (enzyme, UniProt Q46389 1-262, looked up)
chain: MLIIGERINGMFGDIKRAIQERDPAPVQEWARRQEEGGARALDLNVGPAVQDKVSAMEWLVEVTQEVSNLTLCLDSTNIKAIEAGLKKCKNRAMINSTNAEREKVEKLFPLAVEHGAALIGLTMNKTGIPKDSDTRLAFAMELVAAADEFGLPMEDLYIDPLILPANVAQDHAPEVLKTLQQIKMLADPAPKTVLGLSNVSQNCQNRPLINRTFLAMAMACGLDAAIADACDEALIETAATAEILLNQTVYCDSFVKMFKTR
Consider B1, for which the “stoichiometry N” value in “crystal structure” was 2. Also, the binding result in data set [1] and in data set [2] was “binds” in each case.
Turning to B2, the binding result in data set [3] is “binds”.

(Values after publication PMC3326194 (Nature, 2012).)
